The results in this text go back to the supplement of paper PMC10724198.

Data set [1] relates to Saccharomyces cerevisiae. Description: protein stability index of tFT-peptide fusion in deletion strain of DOA10 (PSI (0-1 scale)); higher = more stable (slower turnover). The procedure:
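MPS profiling in S. cerevisiae of two library types built from selected 12-aa C-degron peptides (IN1, IN2, LN1, LN3, VN2, R1-R5, W1-W3, Atg1 and Rpa12 C-termini): saturation mutagenesis libraries and C-terminal +1 capping libraries (13 aa). Each peptide is fused to the C-terminus of a sfGFP-mCherry timer, after a GGGS linker. Cells are FACS-sorted into 8 mCherry/sfGFP bins and sequenced. PSI runs from 0 (unstable) to 1 (stable), measured once in wild type and in the das1Δ or doa10Δ background.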

Data set [2] relates to Saccharomyces cerevisiae. The experiment in a line: protein stability index of tFT-peptide fusion in wild type (PSI (0-1 scale)); higher = more stable (slower turnover). The conditions noted are these: genetic background: wild type.
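Throughout, for protein stability index of tFT-peptide fusion in deletion strain of DOA10: PSI per variant is the weighted mean of its sequencing read distribution over the sorted stability bins, counting only variants with over 10 reads summed across bins.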
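Throughout, for protein stability index of tFT-peptide fusion in wild type: PSI derived as read-weighted mean over the 8 sorting bins, only variants exceeding 10 total reads kept, mCherry placed adjacent to the peptide and sfGFP distal.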

For the sequence RVTRLTAIYFRI, the protein stability index in the data set with Saccharomyces cerevisiae [1] was 0.351; with Saccharomyces cerevisiae [2], 0.172.

In the case of RVTRLYAIYFRI, the protein stability index in the data set on Saccharomyces cerevisiae [1] stood at 0.294; in the data set on Saccharomyces cerevisiae [2], 0.134.

Regarding TSLRVLLPLYFR, the protein stability index stood at 0.654 in the data set on Saccharomyces cerevisiae [1] and 0.294 with Saccharomyces cerevisiae [2].

Consider WLVSLPILLFFR, for which the results for the protein stability index in the data set with Saccharomyces cerevisiae [1] and in the data set with Saccharomyces cerevisiae [2] were 0.518 and 0.105, respectively.
